Experimental data from patent US20150283219A1 (INVECTYS, published 2015).

How the values were obtained:
Assay in all cases: competitive ELISA, mean of three experiments
HLA-DR15 = HLA-DR15 (human)
HLA-DRB5 = HLA-DRB5 (human)
HLA-DR4 = HLA-DR4 (human)
HLA-DR1 = HLA-DR1 (human)
HLA-DR7 = HLA-DR7 (human)
HLA-DRB4 = HLA-DRB4 (human)
HLA-DRB3 = HLA-DRB3 (human)

Binder | relative affinity (RA, IC50 of UCP / IC50 of reference peptide) (HLA-DR15) [ratio] | relative affinity (RA, IC50 of UCP / IC50 of reference peptide) (HLA-DRB5) [ratio] | relative affinity (RA, IC50 of UCP / IC50 of reference peptide) (HLA-DR4) [ratio] | relative affinity (RA, IC50 of UCP / IC50 of reference peptide) (HLA-DR1) [ratio] | relative affinity (RA, IC50 of UCP / IC50 of reference peptide) (HLA-DR7) [ratio] | relative affinity (RA, IC50 of UCP / IC50 of reference peptide) (HLA-DRB4) [ratio] | relative affinity (RA, IC50 of UCP / IC50 of reference peptide) (HLA-DRB3) [ratio]
PAAFRALVAQCLVCV (Synthetic 15-mer (>80% purity, Activotec) derived from human TERT; also called UCP44; p44) [UCP1 (TERT44-58)] | 4 | 1 | 50 | 3 | 3 | 4 | 30
KSVWSKLQSIGIRQH (Synthetic 15-mer (>80% purity, Activotec) derived from human TERT; also called UCP578; p578) [UCP2 (TERT578-592)] | 8 | 1 | 112 | 0.2 | 1 | 229 | 154
SLCYSILKAKNAGMS (Synthetic 15-mer (>80% purity, Activotec) derived from human TERT; also called UCP1041; p1041) [UCP4 (TERT1041-1055)] | 3 | 0.5 | 34 | 0.3 | 8 | – | 154
